Measurements reported in patent publication US20260193331A1 (THABOR THERAPEUTICS, published 2026).
Changes are numbered by the printed parent chain. Read-outs that look alike come from different tables or passages of the source. Each block holds one binder with its values, some of them ahead of it.

How the values were obtained:
human AGR2 WT [1] = target: T1, human AGR2 WT (human, UniProt O95994 21-175); test: kinetics, antibody immobilized, hAGR2 soluble analyte; instrument not stated
T1 construct: also called hAGR2; recombinant human AGR2
T1 sequence: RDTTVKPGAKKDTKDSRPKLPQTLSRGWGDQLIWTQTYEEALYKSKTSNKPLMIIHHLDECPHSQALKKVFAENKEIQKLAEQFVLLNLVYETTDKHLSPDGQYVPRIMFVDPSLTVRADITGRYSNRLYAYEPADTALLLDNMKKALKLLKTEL

macaque AGR2 = target: T2, macaque AGR2 (macaque (rhesus monkey), UniProt O95994 21-175 (human entry), limits assumed); test: ELISA, antigen coated at 1 µg/mL, antibody titrated
T2 construct: Whole entry as named; also called rhesus monkey AGR2
T2 chain: T1 sequence with M109L

human AGR2 E60A = target: T3, human AGR2 E60A (human, UniProt O95994 21-175); test: as above
T3 construct: Whole entry as named; also called monomeric AGR2
T3 chain: T1 sequence with E40A

human AGR2 WT [2] = target: T1, human AGR2 WT; test: as above
dog AGR2 = target: T4, dog AGR2 (dog, UniProt O95994 21-175 (human entry), limits assumed); test: as above
T4 construct: Whole entry as named
T4 chain: T1 sequence with R1K, T3I, P7S, R17A, M109I, A135S, T137I

mouse AGR2 = target: T5, mouse AGR2 (mouse, UniProt O88312 21-175); test: as above
T5 construct: Whole entry as named
T5 sequence: T1 sequence with R1K, P7S, T13P, K44R, K50R, I54V, N74H, M109V, A135S, L141Y

human AGR2 WT [3] = target: T1, human AGR2 WT; test: kinetics of Table 4, antibody immobilized, hAGR2 analyte
human AGR3 [4] = target: T6, human AGR3 (human, UniProt Q8TD06 22-166, limits assumed); test: ELISA on plate-coated antigen (1 µg/mL); antibody titrated 10 µg/mL to 0.15 ng/mL; anti-human IgG-HRP, OD 450 nm
T6 construct: Closest family member of AGR2, used as a specificity control in the ELISA
T6 sequence (looked up): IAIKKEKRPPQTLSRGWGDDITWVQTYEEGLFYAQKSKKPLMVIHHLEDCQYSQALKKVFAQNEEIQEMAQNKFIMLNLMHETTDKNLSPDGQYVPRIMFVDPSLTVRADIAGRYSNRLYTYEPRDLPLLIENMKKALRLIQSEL

BSA [5] = target: T7, BSA (UniProt P02769 25-607); test: as above
T7 construct: Negative control coating in the ELISA
T7 sequence (P02769 25-607 limits assumed): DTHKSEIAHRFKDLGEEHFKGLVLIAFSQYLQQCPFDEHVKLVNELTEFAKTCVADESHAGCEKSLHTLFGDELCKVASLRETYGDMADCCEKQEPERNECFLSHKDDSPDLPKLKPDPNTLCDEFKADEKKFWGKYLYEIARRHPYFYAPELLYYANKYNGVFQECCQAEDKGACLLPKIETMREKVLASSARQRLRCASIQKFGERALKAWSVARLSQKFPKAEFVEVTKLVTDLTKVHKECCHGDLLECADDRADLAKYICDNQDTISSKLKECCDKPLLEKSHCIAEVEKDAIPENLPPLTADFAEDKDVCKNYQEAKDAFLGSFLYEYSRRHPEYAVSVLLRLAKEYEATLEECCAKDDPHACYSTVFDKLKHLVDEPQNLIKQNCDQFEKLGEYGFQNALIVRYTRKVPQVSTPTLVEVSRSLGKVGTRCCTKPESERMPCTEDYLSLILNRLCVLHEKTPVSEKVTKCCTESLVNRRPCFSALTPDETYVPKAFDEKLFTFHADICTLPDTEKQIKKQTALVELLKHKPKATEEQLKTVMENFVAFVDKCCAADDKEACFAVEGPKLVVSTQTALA

human AGR3 [6] = target: T6, human AGR3; test: as above; remark: listed apart in the source
BSA [7] = target: T7, BSA; test: as above; remark: listed apart in the source
human AGR3 [8] = target: T6, human AGR3; test: as above; remark: listed apart in the source
BSA [9] = target: T7, BSA; test: as above; remark: listed apart in the source
human AGR3 [10] = target: T6, human AGR3; test: as above; remark: listed apart in the source
BSA [11] = target: T7, BSA; test: as above; remark: listed apart in the source
human AGR3 [12] = target: T6, human AGR3; test: as above; remark: listed apart in the source
BSA [13] = target: T7, BSA; test: as above; remark: listed apart in the source
human AGR3 [14] = target: T6, human AGR3; test: as above; remark: listed apart in the source
BSA [15] = target: T7, BSA; test: as above; remark: listed apart in the source

B1: TH-101 IgG1-LALA humanized monoclonal antibody (antibody, V domains shown)
VH: QVQLVQSGAEVKKPGASVKVSCKTSGYVFSRSWMNWVRQAPGQGLEWIGWIYPGDGDTNYNGKFKDRVTLTADKSTSTVYMELSSLRSEDTAVYFCARGGYDGSPWLSYWGQGTLVTVSS
VL: DIQMTQSPSSLSASVGDRVTITCKASQDINSYLSWFQQKPGKAPKTLIYRANRLVDGVPSRFSGSGSGQDFTLTISSLQPEDIATYYCLQYDEFPFTFGGGTKVEIKR
Kd (human AGR2 WT [1]): 0.116 nM
koff (human AGR2 WT [1]): 3.52e-05 s⁻¹
kon (human AGR2 WT [1]): 303000 M⁻¹ s⁻¹
EC50 (macaque AGR2): 0.48 nM
EC50 (human AGR2 E60A): 1.24 nM
EC50 (human AGR2 WT [2]): 0.52 nM
EC50 (dog AGR2): 0.42 nM
EC50 (mouse AGR2): 0.28 nM
Kd (human AGR2 WT [3]): < 0.15 nM
binding result (human AGR3 [4]): no binding (tested: 10 µg/mL)
binding result (BSA [5]): no binding (tested: 10 µg/mL)

B2: TH-104 IgG1-LALA humanized monoclonal antibody (antibody, V domains shown)
VH: QVQLVQSGSELKKPGASVKVSCKTSGYVFSRSWMNWVRQAPGQGLEWIGWIYPGDGDTNYNGKFKDRFVLSADKSVSTVYLQISSLKAEDTAVYFCARGGYDGSPWLSYWGQGTLVTVSS
VL: B1 VL
Kd (human AGR2 WT [1]): 0.0278 nM
koff (human AGR2 WT [1]): 8.23e-06 s⁻¹
kon (human AGR2 WT [1]): 296000 M⁻¹ s⁻¹
binding result (human AGR3 [6]): no binding (tested: 10 µg/mL)
binding result (BSA [7]): no binding (tested: 10 µg/mL)
EC50 (macaque AGR2): 0.44 nM
EC50 (human AGR2 E60A): 0.92 nM
EC50 (human AGR2 WT [2]): 0.527 nM
EC50 (dog AGR2): 0.48 nM
EC50 (mouse AGR2): 0.3 nM
Kd (human AGR2 WT [3]): < 0.15 nM

B4: TH-106 IgG1-LALA humanized monoclonal antibody (antibody)
heavy: not shown
light: EIVLTQSPATLSLSPGERATLSCKASQDINSYLSWFQQKPGQAPRTLIYRANRLVDGIPARFSGSGSGQDFTLTISSLEPEDFAVYYCLQYDEFPFTFGGGTKVEIKRTVAAPSVFIFPPSDEQLKSGTASVVCLLNNFYPREAKVQWKVDNALQSGNSQESVTEQDSKDSTYSLSSTLTLSKADYEKHKVYACEVTHQGLSSPVTKSFNRGEC
Kd (human AGR2 WT [1]): 0.00327 nM
koff (human AGR2 WT [1]): 1.07e-06 s⁻¹
kon (human AGR2 WT [1]): 326000 M⁻¹ s⁻¹
binding result (human AGR3 [10]): no binding (tested: 10 µg/mL)
binding result (BSA [11]): no binding (tested: 10 µg/mL)
EC50 (macaque AGR2): 0.547 nM
EC50 (human AGR2 E60A): 0.96 nM
EC50 (human AGR2 WT [2]): 0.633 nM
EC50 (dog AGR2): 0.547 nM
EC50 (mouse AGR2): 0.313 nM
Kd (human AGR2 WT [3]): < 0.15 nM

B6: TH-109 IgG1-LALA humanized monoclonal antibody (antibody, V domains shown)
VH: B2 VH
VL: EIVLTQSPATLSLSPGERATLSCKASQDINSYLSWFQQKPGQAPRTLIYRANRLVDGIPARFSGSGSGQDFTLTISSLEPEDFAVYYCLQYDEFPFTFGGGTKVEIKR
Kd (human AGR2 WT [1]): 0.0265 nM
koff (human AGR2 WT [1]): 8.74e-06 s⁻¹
kon (human AGR2 WT [1]): 329000 M⁻¹ s⁻¹
EC50 (macaque AGR2): 2.15 nM
EC50 (human AGR2 E60A): 3.57 nM
EC50 (human AGR2 WT [2]): 2.37 nM
EC50 (dog AGR2): 2.31 nM
EC50 (mouse AGR2): 2.03 nM
Kd (human AGR2 WT [3]): < 0.15 nM
binding result (human AGR3 [14]): no binding (tested: 10 µg/mL)
binding result (BSA [15]): no binding (tested: 10 µg/mL)

Continued, in another order:

Kd (human AGR2 WT [1]): 0.063 nM
koff (human AGR2 WT [1]): 1.94e-05 s⁻¹
kon (human AGR2 WT [1]): 308000 M⁻¹ s⁻¹
binding result (BSA [9]): no binding (tested: 10 µg/mL)
EC50 (macaque AGR2): 0.62 nM
EC50 (human AGR2 E60A): 1.29 nM
EC50 (human AGR2 WT [2]): 0.813 nM
EC50 (dog AGR2): 0.6 nM
EC50 (mouse AGR2): 0.5 nM
Kd (human AGR2 WT [3]): < 0.15 nM
B3: TH-115 IgG1-LALA humanized monoclonal antibody (antibody, V domains shown)
VH: QVQLLESGGGLVKPGGSLRLSCATSGYVFSRSWMNWIRQAPGQGLEWIGWIYPGDGDTNYNGKVKDRFTLSADKAKNSVYLQMNSLRAEDTAVYFCARGGYDGSPWLSYWGQGTLVTVSS
VL: EIVLTQSPDFQSVTPKEKVTITCKASQDINSYLSWFQQKPDQSPKTLIYRANRLVDGVPSRFSGSGSGQDFTLTINSLEAEDAATYYCLQYDEFPFTFGGGTKVEIKR
binding result (human AGR3 [8]): no binding (tested: 10 µg/mL)

binding result (BSA [13]): no binding (tested: 10 µg/mL)
EC50 (macaque AGR2): 0.553 nM
EC50 (human AGR2 E60A): 1.1 nM
EC50 (human AGR2 WT [2]): 0.853 nM
EC50 (dog AGR2): 0.66 nM
EC50 (mouse AGR2): 0.3 nM
B5: TH-106 IgG1 humanized monoclonal antibody (antibody)
heavy: not shown
light: B4 light
binding result (human AGR3 [12]): no binding (tested: 10 µg/mL)
